Results as given in the DeepSol protein solubility set.

test: soluble on expression in E. coli; label from the status in PepcDB or PDB records

Sequence	soluble on expression in E. coli
MLEDMSKDALFYNYYAQWIEVYKKDAIREATMAKYRMTQKWVEKLAPELKVCELTRTAYQKILNDYAKEHERQTTLDFHHQLKGAVMDAVDEGLIERDPTRKAIIKGKTPREKKIKYLNQFELHTLIADLDIKEEPNWDWFILLVAKTGMRFSEALAITPKDFDFGRQTLSISKTWDYKGKGGFLPTKNKSSVRKIQIDWQIVVKFSELIKGLPEDEPIFVGEEKIYNSTVNDALTRHCKACGISEISIHGLRHTHASLLLFAGVSIASVARRLGHASMTTTQKTYLHIIQELENKDVDLVMRTLSGL	soluble
MLEVLVALAIFATAAISVIRSVSQHINTVSYLEEKMFAAMVVDNQMANVMLDTGALKAKNGTEELAGRTWYWKVTPVATTQPLLKAFDVSVATAKNASPVVTVRSYVAQ	not soluble
MLFDMDGVLFDSMPYHAEAWHKTMKAHGLNLSREEAYMHEGRTGAGTINIVCQRQLGRDATQEEIESIYLEKSIEFNKHPQAERMPGAWELLQKIKAEGIIPTVVTGSGQASLLDRLEHNFPGMFRQELMVTAFDVKYGKPNPEPYLMALEKGGLKPNEAIVIENAPLGVEAGHKAGIFTIAVNTGPLNGEILLNAGADLLFPSMQALCESWEKLVRLLH	not soluble
MLFHLPKLPAELRVSHLNARVNEQRKKIAQTTASKLEFLQLTQQLVKEAKIRKKNNQKIFVLDFKGDIQASAVDQLREEITLILATAKSGKDRVVLRLESPGGMVHGYGLAAAQLVRLRDAGFHLTIVVDKVAASGGYMMACIANEIVSAPFAILGSIGVVAQVPNFNRLLKEHNVDFELYTAGEYKRTVTMFGENTPEGKAKFEEELKQTHALFKHFVEKYRPQLNVEKVATGEHWYGQDALDLNLVDKLQTSDEYLLSLLPQHDVYVITTRKKPTLGERLGLQAAQLADSFIPAVMNKVVESLVNANSHLVQMRDPKILEHHHHHH	not soluble
MLFKARKWILSGASAQKSKSMAHTMLVENGFILPTAKGFYSLLPLGQRVIDKLCRILDVEFQNSGALKIAMPIVGTQQLWEKTGRWEAMGPEMIRFHDRQQNHMCLQPTAEEMCTELIATLSPLKKSQFPLIVYQIGEKFRDEMNPRFGLMRGRQFLMKDMYSFSTDAETSQQTYAQIRQIYDRIFGEILQLDEDVIKVEADSGVHGGHISHEYHLKSSLEEDFVNFCENCKNHNKFEGPGPAKCEKCAENSSKTVQKIPSVEIAHTFHLGTKYSEALGAKFQGKPLDMCCFGIGVTRLLPAAIDLLSVSDKALRLPRAIAPFDAVIIVKKSLMSNVIVEMASSSASRYLKGGILLDDRVEMSAGKRIHDANRLGIPFILVIANETERSLATQKPVIEVFTTHAKSAEPMSQGSMSLDRFVTFVQSTLYGGGGAHDSGHLAHNQVLDQLGSHQH	not soluble
MLGHNKISVIIPAYNEERRIGNVLKGIPDFVDEVIVVDDGSSDGTSKVAMELGATVIRLNKNSGKGAAMREGLKISTGDIIVFMDADGQHNPKEIYRLVKPIVEGRADLVIGRRIITRGKRPMSRKISNFITTRLITLKTRKKILDTQSGFRAIRREFVPVIESDRYEVETEVLIKAIKKGARILEVPISTRYDVETGHFKMIDIFRFLFALIKYLEHHHHHH	not soluble
MLGKEELRNQSIAVIGAGIIGLSIGLKLQQQGYHVTIFDPNGVGNGCSKGNAGHIATEQVFPLATPALIPQLPKMLLSSTSPVSIRWQDLPNTVGWMIRFLLKAKPSAAEASTQAITSLNTRAVQSWNLLLDSIGKSGLIKMDGSLLTFESESLFEGYQSTLDALAEQGVRYELWTQNEIRRRLPELSRKVRFGVFFPETGHTINPYALCVELSNAFEKLGGSLVHEEVDAVSKNGDVLVNTQRMSFDKIVVAAGVHSKALVRQLTGVNVPIQAERGYHLMMNDKRESLPFPISSADRKFIMTPMSEGLRLAGTVEYADVKSPPNMKRAEMLYQQGNAMFESGLNPLEQQEKWMGNRPSTIDSLPVIDQCFNGKIFLAFGHQHLGLTQAAITADLISELVADKPTSVNITPFTLQRFALEHHHHHH	not soluble
MLGNIAEISNPNERRQAVKALVSAVKSDEDDSVRAAATDALYQRGEDAFDYLVAELAEMGGSEATERTATTLLTEWLSADHLEFRMVAATALGERGATAAVPDLVRALTDPAPRVRTRAAQACGRLSDPRVVPPLSERLSDGRQQVREAAANALGAIGTDRALAELVPVTQADEEGLRLIAVDELGQFGSVKPVVVLVDALDDDSTTVQRAAMLSLLELLTTASTEELELIRGTVVDELARADVQATVPALLDIAADGTRRRYRQTAIWLLSRITGDRYRSEVIDCLLSTLDKPDEETAQLAEAVLPELRSPELEKRLRVYLSRERGSEEARSRAQAVLDEICDGSSGELVTTGVDYTYVDSPADYTNQHSSRD	not soluble
MLGVFQKRCASTAPLIRPIQRVLVANRGEIAIRVQNTARKMGIETVAVFSDADRNSLFVKKADKAYHIGPPLAAESYLNMDKIINSALRSGAQAIHPGYGFLSENAGFAEKCAQAGLVFIGPPAQAIRDMGAKNVSKQIMEDAKVPVVKGFHGEDQSDANLKKKSAEIGYPVMLKAVYGGGGKGMRIAWNEAEFEEKLASARNEAKKSFGNDEMLVEKFVEKPRHVEVQVFGDHHGNYVHLWERDCSVQRRHQKIIEEAPAPNMEHDTRVKLGESAVRAAAAVGYVGAGTVEFIMDPRGEFYFMEMNTRLQVEHPVSEAITGTDLVEWQLRVAQGEKLPLKQSEIPLNGHAFECRVYAEDTRKGAFMPTAGRLNYVDFPEDARIDTGVVSGDEVSIHYDPMIAKVVVWGQDRAVAAAKLESALARTRISGLPTNIDFVRRVLAHPEFAAGNVYTDFIPDHQKELFAESETPAEIYVESAVAHALAALQKSDAGVFQNLSFFRMNLSPKYIFKIDGKDVSIRFDSDSRLTVSYDGNSYETLLNDIESTTDGSFKFTLEANGRRWSTVVKNLGNSLMVNGVGQNEYETPQIHETFDSLSGGAASHSAVAPMPGIIEKILVKPGEQVTTGQALVVMTAMKMEYIIRAPEDSTVEHIKCQAGKNVPKNAVLVQFA	not soluble
MLHTLHRSPWLTDFAALLRLLSEGDELLLLQDGVTAAVDGNRYLESLRNAPIKVYALNEDLIARGLTGQISNDIILIDYTDFVRLTVKHPSQMAW	soluble
MLIRAMQKSDYEAVYKLWCEIKGFGIRSIDDSKENIENFLDRNPNLSVVAVIDEEIVGSILCGHDGRTGGFYHVCVHKDHRKKGIAHEMAKFCLEALKAQKINKIALIAFKNNDLGNEFWKHYGFTLREDANYYDLSLNEYNQTSFNA	not soluble
MLIRRKIMQYNDMSKEELLVLKESLNKEYAEAKAKGLALDMSRGKPSAKQLDVSLGLLDTINSSSDLKSLDGTDCRNYGVLDGIPEAKKLMADMMGTTPDHVIVYGNASLNIMYDQISRAYTHGILGNTPWCKLDKVKFLCPVPGYDRHFAITERFGIEMINIPMSESGPDMGMVEEYVSKDASVKGIWCVPKYSNPQGYTYSEETVKRMAALKPAAEDFRIFWDNAYVIHDLYDDNKDEIADIISECEKAGNPDMVFEFASTSKVSFPGSGIAALATSANNIADIKKQLTIQTIGHDKLNQLRHVRFFKDINGLKEHMRKHAEFIRPKFEAVESVLEEELSGLGIGSWTEPKGGYFISFDAMDGCAKAIVAKCKEAGVKLTGAGATFPYGKDPKDSNIRIAPSFPTPEEMKQAADLFVLCVKLVSVEKLLENK	not soluble
MLITERIYVLEDVDVQAFLGVNNSNLMLLRTLFPKLRLVAHHNVLKIMGDSRETDRFLEVLEPMVAYCREYNLLPEDVILRIAQGAKLPADDVPKHLILHGTGGKSIIARGDNQQKLVEAFEANDLVFAIGPAGTGKTFVAISLAVRALKSKQVRRIILSRPAVEAGEKLGFLPGEMKDKLDPYLQPLYDALEEMIPAVKLKEYIENNIIQIAPLAYMRGRTLNDAVVILDEAQNTTELQMKMFLTRLGANAKMIVTGDITQTDLPRGVHSGLRQALNILQGTRGIGYIAFQRADIVRHPLVQRVVDAYDRYDAERKKEAEAAAVVAQTI	not soluble
MLKFFAALLFAVATMAQAQDNTLHTDLPLDYLAQANVETPDRPLVIFIHGYGSNAADLFGLKEHLPAGFNYLSVQAPVELQADSYKWFTQKKGGTDYDGVTEDLKSSGKRLTDFITQATEKFRTQPGKVFLVGFSQGAMMSYEVALRQPTLVGGFAALSGRLLPVVKSEVNASDDLKALKVFIGHGVQDRQVAYASGPQAEATLKSLGLTPQFHGYEGLGHSINEAEVVDLANWLQQSSR	not soluble
MLKIISGKYRNQIIPTAKNIKYRPSTGKLKEAIFSILTSGEFTGNKLFNENTHILDLFAGSGSLAFESLSRGAGFATLIDIDTSSLKIAEGFAKSLNIENNVNFVNINALNLPKATRHLFKPAYREGSKGDTEHSTAAYTLVREDASTGSTFKLPLEAKFGKMSNKSFDLVFIDPPYHKNIVPKVMKLLIKNNWLKDGAIIVIEMAKTDDYILDENIEIIREKLYGKSKLLVLSFTVIPAKAGIQ	not soluble
MLKKAEKFEKIFRLESSLRALERVRDFLSQESYERLRELVLIRLKGIKIEEKELNSKVAVAFSGGSDSSATYKILAWAGFKVYPITAKLPQMRDEVLKRLESGGAIFVEIPEYMEVMEDLIRKRTAICGRCHSMVMRAVEERARELGAEIVASGDMLTVGSGSIYEKDGIVILNLPAFLALDKKELLEILGWKKYELKYGCPLWKEAAKRAPVLKKFGLQRVLRELRGGALPKEFAKELIIDILRA	not soluble
MLKMSTRTEAMSDKQVRAQYTREFKLEAVRQVRAGQAIAGVAKVLGIPKASLGNGVRLAAKGALGGSGGSDKADRVSPEQMEIARLRAEVARLRMERDIAKKAAAYFAQDTLRGTPGLTQLEHHHHHH	not soluble
MLKQSLATLLLCSTLSPLAVVLPTLAGPGDGGMGWGAKVENLNLTPEQRQNLQAIRQRYQSQIEETRTQLRTAKDELRRLMASNASDEQIRAKHAQVQQLQQKLATLRFESMLATRKILTPEQRQALAERMQNRQGQRRLERLEHHHHHH	soluble
MLKVAIAEDDFRVAQIQEEFLSKIKDVTVIGKALNAKETIELLQKEEIDLLLLDNYLPDGIGTDLLPQIHADFPNVDVIMVTAANENYMLEKAIRNGVSNYLIKPVTLEKFVRTIEDYKRKKQLLHSNNEVNQALIDNFFGTSQTQDIKNLPTGVDPLTLQKVKGIIKGFEEGITIEEMGEQMGASRTTARRYLEYLVATNECTVEYKYGIIGRPERKYRIGRGL	not soluble
MLLAYSMKVVYHLFSGGKDSSLAAWILKKLGYEVKLITITFGVLDNWKFARETAEILGFDHEVIEMPIGILEKATEMCIKEGRAGNAIQYIHERALEYIASREEVKRISDGTRRDDRVPFLDLSKARSLEDRYNVAYIRPLLGLGYKTIRELVNEIFVVVEDESEKVQKGDYETELRELIRRKGHDPSQIFPKRHVQSRVVGLR	not soluble
MLLEERLSQISQIIDKEGSATIDFLAQKLEVSKDTIRRDLIKLESRKKLHRVHGGAIPIGKEAEILNYEERSNISTSLKKKIASKIKNLIKDHSTLIFDSSTTVEVAIKQLDNFSISTITNSLTNAILLSKYEMATVQLLPGKLNKNQLFLYGAETVEKLSQYQVDFTILGVFALSNNGLFIHTEEEGLVKRKMIQQGKQVIAIADHTKLNKEGFFKICDLKEIDYLITDEKIEGELMNNLNDNNVKVVTINELEHHHHHH	soluble
MLLELIPLLGIHFVLRTARAQSVTQPDIHITVSEGASLELRCNYSYGATPYLFWMERTVEEAFILLVCLKPWRVASSLEKKEKEDESFQLLLGSRYNVLEAHCLLPLIRWLTSGDSLLSAQPHCPQEL	not soluble
